In the supplement of paper PMC9112550, “Optimization of the antimicrobial peptide Bac7 by deep mutational scanning” (BMC Biology, 2022):

system: Escherichia coli TOP10; experiment: shrunken log2 fold change of peptide-encoding DNA abundance (4.5 h post-induction vs induction); higher = less antimicrobial activity (less host growth inhibition); conditions: time post-induction: 4.5 h; library: site-saturation at positions 5, 18, 19, 20
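Further: peptides expressed intracellularly from a pBAD plasmid library in pooled LB shake-flask culture, induced with 0.3% L-arabinose, DNA abundance read by NGS, three biological replicates, DESeq2 with apeglm shrinkage.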

Going from RRIRFRPPRLPRPRPRPDIKPRP to RRIRQRPPRLPRPRPRPTHTPRP, the “shrunken log2 fold change” value rises from -0.602 to 0.258.

RRIRKRPPRLPRPRPRPDFRPRP and RRIRIRPPRLPRPRPRPAHIPRP are within 0.2 log units of each other in “shrunken log2 fold change” value: 0.134 for the first, -0.063 for the second.

Compared with RRIRSRPPRLPRPRPRPYWLPRP, RRIRGRPPRLPRPRPRPRIVPRP is higher in “shrunken log2 fold change” value: -0.248 for the first, 0.824 for the second.

RRIRRRPPRLPRPRPRPQREPRP and RRIRFRPPRLPRPRPRPENTPRP are within 0.2 log units of each other in “shrunken log2 fold change” value: 0.153 for the first, 0.003 for the second.

Compared with RRIRRRPPRLPRPRPRPQPNPRP, RRIRKRPPRLPRPRPRPLTIPRP is lower in “shrunken log2 fold change” value: 0.355 for the first, 0.146 for the second.

RRIRERPPRLPRPRPRPDPYPRP and RRIRNRPPRLPRPRPRPDVFPRP are within 0.2 log units of each other in “shrunken log2 fold change” value: -0.0291 for the first, -0.199 for the second.

RRIRRRPPRLPRPRPRPGQCPRP and RRIRVRPPRLPRPRPRPIATPRP are within 0.2 log units of each other in “shrunken log2 fold change” value: 0.22 for the first, 0.141 for the second.

Going from RRIRSRPPRLPRPRPRPAFPPRP to RRIRTRPPRLPRPRPRPKEAPRP, the “shrunken log2 fold change” value falls from 0.278 to 0.00564.

Going from RRIRARPPRLPRPRPRPIIMPRP to RRIRSRPPRLPRPRPRPSWDPRP, the “shrunken log2 fold change” value rises from -0.258 to 0.364.

Compared with RRIRGRPPRLPRPRPRPCPTPRP, RRIRERPPRLPRPRPRPFALPRP is lower in “shrunken log2 fold change” value: 0.0246 for the first, -0.256 for the second.

RRIRNRPPRLPRPRPRPVTKPRP and RRIRCRPPRLPRPRPRPCPTPRP are within 0.2 log units of each other in “shrunken log2 fold change” value: 0.0334 for the first, 0.0528 for the second.

Compared with RRIRKRPPRLPRPRPRPESGPRP, RRIRYRPPRLPRPRPRPTFHPRP is lower in “shrunken log2 fold change” value: 0.918 for the first, -0.649 for the second.

Going from RRIRIRPPRLPRPRPRPLWFPRP to RRIRQRPPRLPRPRPRPEWFPRP, the “shrunken log2 fold change” value rises from -0.257 to -0.00295.

Compared with RRIRWRPPRLPRPRPRPEMRPRP, RRIRLRPPRLPRPRPRPYCFPRP is lower in “shrunken log2 fold change” value: 2.09 for the first, -0.909 for the second.

RRIRVRPPRLPRPRPRPYISPRP and RRIRLRPPRLPRPRPRPEKNPRP are within 0.2 log units of each other in “shrunken log2 fold change” value: -0.0821 for the first, 0.0916 for the second.

Going from RRIRCRPPRLPRPRPRPGWIPRP to RRIRTRPPRLPRPRPRPINWPRP, the “shrunken log2 fold change” value falls from 0.198 to -0.0841.

First: RRIRPRPPRLPRPRPRPCLEPRP
Second: RRIRFRPPRLPRPRPRPEQKPRP
The “shrunken log2 fold change” value of the first is lower: -0.0989 for the first, 0.341 for the second.

RRIRHRPPRLPRPRPRPFVDPRP and RRIRIRPPRLPRPRPRPEAHPRP are within 0.2 log units of each other in “shrunken log2 fold change” value: 0.268 for the first, 0.0771 for the second.

Compared with RRIRIRPPRLPRPRPRPYPWPRP, RRIRPRPPRLPRPRPRPWSAPRP is higher in “shrunken log2 fold change” value: -1.06 for the first, -0.00633 for the second.

Compared with RRIRCRPPRLPRPRPRPSEYPRP, RRIRSRPPRLPRPRPRPSYIPRP is lower in “shrunken log2 fold change” value: -0.497 for the first, -1.48 for the second.

RRIRWRPPRLPRPRPRPVAPPRP and RRIRGRPPRLPRPRPRPQSNPRP are within 0.2 log units of each other in “shrunken log2 fold change” value: 0.522 for the first, 0.518 for the second.

Compared with RRIRTRPPRLPRPRPRPPYRPRP, RRIRGRPPRLPRPRPRPQMIPRP is higher in “shrunken log2 fold change” value: -0.187 for the first, 1.83 for the second.

First: RRIRYRPPRLPRPRPRPGAWPRP
Second: RRIRFRPPRLPRPRPRPWVDPRP
The “shrunken log2 fold change” value of the first is higher: 0.0731 for the first, -0.608 for the second.

RRIRRRPPRLPRPRPRPSCMPRP and RRIRARPPRLPRPRPRPMHIPRP are within 0.2 log units of each other in “shrunken log2 fold change” value: 0.019 for the first, -0.132 for the second.

Going from RRIRFRPPRLPRPRPRPDEMPRP to RRIRNRPPRLPRPRPRPTFIPRP, the “shrunken log2 fold change” value falls from -0.0134 to -0.279.

Compared with RRIRRRPPRLPRPRPRPKKTPRP, RRIRYRPPRLPRPRPRPIGHPRP is higher in “shrunken log2 fold change” value: -0.0163 for the first, 3.4 for the second.

Going from RRIRFRPPRLPRPRPRPNMKPRP to RRIRDRPPRLPRPRPRPLACPRP, the “shrunken log2 fold change” value rises from 0.234 to 0.945.

RRIRCRPPRLPRPRPRPDHVPRP and RRIRLRPPRLPRPRPRPVACPRP are within 0.2 log units of each other in “shrunken log2 fold change” value: 0.021 for the first, 0.0944 for the second.

RRIRQRPPRLPRPRPRPACIPRP and RRIRDRPPRLPRPRPRPPSMPRP are within 0.2 log units of each other in “shrunken log2 fold change” value: -0.165 for the first, -0.147 for the second.

Compared with RRIRRRPPRLPRPRPRPHKFPRP, RRIRIRPPRLPRPRPRPMRMPRP is higher in “shrunken log2 fold change” value: -0.132 for the first, 0.0697 for the second.

First: RRIRRRPPRLPRPRPRPCTMPRP
Second: RRIRSRPPRLPRPRPRPIVWPRP
The “shrunken log2 fold change” value of the first is lower: -0.451 for the first, -0.0774 for the second.

First: RRIRDRPPRLPRPRPRPDYTPRP
Second: RRIRCRPPRLPRPRPRPEFIPRP
The “shrunken log2 fold change” value of the first is higher: -0.276 for the first, -0.551 for the second.

Compared with RRIRIRPPRLPRPRPRPVGDPRP, RRIRCRPPRLPRPRPRPEAMPRP is higher in “shrunken log2 fold change” value: -0.0246 for the first, 0.536 for the second.

First: RRIRGRPPRLPRPRPRPGSLPRP
Second: RRIRNRPPRLPRPRPRPRNDPRP
The “shrunken log2 fold change” value of the first is higher: 0.421 for the first, -0.304 for the second.

First: RRIRARPPRLPRPRPRPMELPRP
Second: RRIRCRPPRLPRPRPRPKNRPRP
The “shrunken log2 fold change” value of the first is higher: 0.114 for the first, -0.118 for the second.

Going from RRIRERPPRLPRPRPRPPPQPRP to RRIRGRPPRLPRPRPRPQQTPRP, the “shrunken log2 fold change” value rises from 0.553 to 1.6.

RRIRIRPPRLPRPRPRPQMEPRP and RRIRYRPPRLPRPRPRPSQTPRP are within 0.2 log units of each other in “shrunken log2 fold change” value: -0.12 for the first, -0.0989 for the second.

RRIRARPPRLPRPRPRPQEEPRP and RRIRWRPPRLPRPRPRPVENPRP are within 0.2 log units of each other in “shrunken log2 fold change” value: 0.0293 for the first, -0.101 for the second.

Going from RRIRLRPPRLPRPRPRPIQCPRP to RRIRKRPPRLPRPRPRPITNPRP, the “shrunken log2 fold change” value rises from -0.301 to 0.133.

Compared with RRIRGRPPRLPRPRPRPGMHPRP, RRIRFRPPRLPRPRPRPMIEPRP is lower in “shrunken log2 fold change” value: 0.589 for the first, 0.0675 for the second.

Compared with RRIRARPPRLPRPRPRPIKYPRP, RRIRSRPPRLPRPRPRPMAEPRP is higher in “shrunken log2 fold change” value: -0.38 for the first, 0.348 for the second.

First: RRIRYRPPRLPRPRPRPTYLPRP
Second: RRIRERPPRLPRPRPRPKKLPRP
The “shrunken log2 fold change” value of the first is lower: -0.824 for the first, -0.083 for the second.

RRIRLRPPRLPRPRPRPTVNPRP and RRIRCRPPRLPRPRPRPDVVPRP are within 0.2 log units of each other in “shrunken log2 fold change” value: -0.119 for the first, -0.00174 for the second.

RRIRVRPPRLPRPRPRPVWHPRP and RRIRKRPPRLPRPRPRPRICPRP are within 0.2 log units of each other in “shrunken log2 fold change” value: 0.119 for the first, 0.0539 for the second.

Compared with RRIRRRPPRLPRPRPRPNDSPRP, RRIRARPPRLPRPRPRPLQVPRP is higher in “shrunken log2 fold change” value: -0.286 for the first, 0.151 for the second.

First: RRIRARPPRLPRPRPRPMCVPRP
Second: RRIRFRPPRLPRPRPRPETAPRP
The “shrunken log2 fold change” value of the first is lower: 0.188 for the first, 0.577 for the second.

Going from RRIRRRPPRLPRPRPRPCTFPRP to RRIRPRPPRLPRPRPRPWQVPRP, the “shrunken log2 fold change” value rises from -0.262 to -0.0573.

RRIRDRPPRLPRPRPRPTEPPRP and RRIRDRPPRLPRPRPRPLPCPRP are within 0.2 log units of each other in “shrunken log2 fold change” value: 0.185 for the first, 0.0544 for the second.

Compared with RRIRCRPPRLPRPRPRPFSLPRP, RRIRTRPPRLPRPRPRPDMRPRP is higher in “shrunken log2 fold change” value: -0.239 for the first, -0.025 for the second.

RRIRPRPPRLPRPRPRPQHEPRP and RRIRKRPPRLPRPRPRPSYCPRP are within 0.2 log units of each other in “shrunken log2 fold change” value: -0.146 for the first, -0.251 for the second.

RRIRLRPPRLPRPRPRPPHYPRP and RRIRYRPPRLPRPRPRPVHMPRP are within 0.2 log units of each other in “shrunken log2 fold change” value: 0.0636 for the first, -0.0179 for the second.

First: RRIRPRPPRLPRPRPRPHLGPRP
Second: RRIRIRPPRLPRPRPRPFWNPRP
The “shrunken log2 fold change” value of the first is higher: 0.088 for the first, -0.277 for the second.

RRIRIRPPRLPRPRPRPVFPPRP and RRIRWRPPRLPRPRPRPITVPRP are within 0.2 log units of each other in “shrunken log2 fold change” value: -0.221 for the first, -0.0559 for the second.

Going from RRIRYRPPRLPRPRPRPTTQPRP to RRIRQRPPRLPRPRPRPCGIPRP, the “shrunken log2 fold change” value rises from -0.597 to -0.115.

In the case of RRIRHRPPRLPRPRPRPHWHPRP, the “shrunken log2 fold change” value is reported as -0.25.
